This assay deals with Nascent polypeptide-associated complex (NAC) protein of Picrophilus torridus (Picrophilus torridus). As to the kind of experiment: SEC; HiPrep S-200 HR column; elution compared with protein standards run on this column. On the technique in general: SEC sorts molecules by how far they enter the pores of the column.

Consider “Nascent polypeptide-associated complex (NAC) protein of Picrophilus torridus (natural protein)”, for which the stoichiometry N stood at 2.

Usually stoichiometry N stands for the number of molecules, sites or subunits per partner or assembly.

These data come from paper PMC7264160.
